Assay results taken from a protein production outcome set (Wang et al. 2014).

Test: label from the status in PepcDB records

Sequence | protein production
MRKSFNLIWMVFGFLLLIVGCNEDKKSTAFDPNQPVKFTEFMPDSGGIRTKFIVKGSNFGEDKSQVKVYFKDEVGNEREALVLGVKPDVIYAQVPKQAGGESHVRVEIAGKEAELSNAEKTFKYIVTSSVSTVVGKAKEGGNKDGTLGETTFNTPRYVAVDNDDNVFIFDSDGRTRLSSIEQNKTITLLDGMVIDQPLFIDKEKKQLFGPCDNANFGCFLFDANVSWVADKMGQLLANGGWMHSVVLDPVDSTFVIYRQNTGQLWTQPFDKNRRTLNPNKAKRIGTLYNTGSNGLCAYNPVDKYVYCVLHSKSAVYRFKLTRDADGWPALDGDIDEYIPGAGAGFRDGDVQEAQFKEPRGIAIDKEGNLYIADVGNNRIRKVDTKLNVVTTIAGSGAAGYKDGDPLEAQFNQPWGVYLDKNEFLYIADQNNHCIRKLAIE | failed
MRKVLLTIRKIAMTQPTSRKADLVYQLNDRPPLPQTLFAALQHLLAMFVAVITPSLIICQSLGVPADQTNTIISMSLFASGLSSFIQIRTFGPIGSGLLSIQGTSFNFLGPIIGAGLALKAGGADIETMMAAIFGTILVASSAEILLSRVLQFAQRIITPLVSGIVVTLIGLTLVQVGLISMGGGYAAMADGSFGSLDKLALAGTVLAIIVLLNRAHNPYVRVASIVIAMLVGYVMAYLMGMVNTDNLAETQFIALPIPMQYGLGFDWSLFIPLVLIFLITALEAIGDITATSEVSGEPVKGPVYMKRIKGGVLADGLNSALAAVFNSFPNSTFSQNNGVILLTGVASRYVGYFIAGMLVLLGLFPGVASFVQLIPEPVLGGATIVMFGTIAAAGVRIISRVDLDRRAILIMALSFSMGLGIAQKPEILQFMPEFIKNLFSSGVAAGGITAIVLNLLLPEVRRDEDAASVAKTEAAQESN | failed
MRKVLMFLSTALLLAILSLSFTGLDLKAKAASDLYPLPAPIIDVFPDDGLAKDMAKNLNKDSVNDVIDQDDLDALTGLGFETSTITNDSMQLLERAMFNNVTDVSIMEFGAKLTEFPDITTIPHLKTLFFADPPGRLTRNLSLPNYQNYPEMDTITMSGNNLIGSIPDFTGMPALKQLYMSEMLITSDELPNFNNIPLLITLDLSSNQLTTIPDFQNIPNLTFLDLNANLLTNTPDFQNLPKLTDLNLRHNNLTGTMVNYTNLPSLESLNLDYNFLTELPSNVLDTIYVQSQNGELPDQTINQGDTCTIDLPIYFQMEETNMLVSPEVTGEYIGISVIQLPTTVNEEGNTITVDTSALSPGEYKLDVSYNHNYATGGVCSYDWNVTIN | failed
MRKVQVLVQTRDGKKTVYEVDRLGTVASLKARIGQVMSVPMGFSRLSYKGRVLSNQSVLEDLGPNKSTLDLTWKPVVLTANQSSKLSKFGYGRIDDSEVMFTLIGGYQQREEYPGGLVNPPDDESQLNFNAGDDDDALEAQDMTGHDLSSIQTDDLSLKGQTEPELDCSIGSHGFSGSQEEGHE | failed
MRKVRIANEQTEESDIIKIVHLSDIHFSEAYYMPEIADSMLQIINESSPDIVIITGDLTENGFAAEYNGAKNFIDKIECKNKVIVPGNHDSKNAGYLFFEDIFKARSSSGYFGDVTVIGLDSSQPELDDGHIGRENYGWIESTFSTGSFKVFALHHHLIPIPKTGRGNNVLVDAGDVLELLDRSGVNLVLCGHWHIPWVWRLNDMFIISAGTVCSSKIRGKTSQCYNLIELETPESECTRWHLRITRVFSSGIKELVVDNIV | failed
MRKYLAEFLGTFMLVFLGTATVVIAKGDVLAIGLAFGLAITVSAYAFGGISGGHFNPAVTTAMLINRRIDAADAIGYIIAQIIGAIVASAAVKSFVSALGLSATLLGQTDFPKIGSGMAFFVEALVTFLFLMVILNVTSNDHGNADFAGLTIGVTLAFLIIVALNLTGGSLNPARSIGPAIFAGGSALSHLWVYILAPEVGAILAAFCARVMGSED | failed
